Reference: patent US9023353B2, “Anti-(+)—methamphetamine monoclonal antibodies” (Board of Trustees University of Arkansas, priority 2013, dated 2015)
Entries after “also recorded” stand apart in the source; their conditions may differ.

Columns and labels:
[1] = test system: ch-Antibody 51; test: ligand cross-reactivity testing: inhibition of [3H]-METH binding to antibody
From the text: Ch-Antibody 51 was designed to maintain the variable framework regions of the heavy and light chains of the mouse antibody including all three CDRs of both the heavy and the light chains, but includes a human IgG2 Fc region. These studies were designed to examine the potential for ch-Antibody 51 to bind to structurally-related stimulants, neurotransmitters, selected medications, and other drugs of abuse (Table 4). The assay used a modified radioimmunoassay (RIA) in a competitive binding format with [^3H]-METH (similar to RIA in Peterson et al., J Pharmacol Exp Ther (2008) 325:124-133) The assay is started by incubating radiolabeled METH ([^3H]-METH) with unlabeled potential ligand (concentrations typically range from 0.03-5000 nM), ch-Antibody 51, and Protein G conjugated to magnetic beads. After reaching equilibrium, the beads with bound antibody and ligand are separated from the solution with a magnet and the supernatant aspirated. The amount of mAb-bound [^3H]-METH is quantified by liquid scintillation counting. For each of the related stimulants, a complete inhibition curve was constructed to determine the KD or KI value (see FIG. 7). For the remaining test ligands, the same method was used, but only 2 concentrations of ligand were tested rather than the expanded range. Additionally, highly concentrated pools of compounds were used to attempt inhibition of [^3H]-METH binding to ch-Antibody 51. If METH binding was inhibited 50% or more by any pool of ligands, the assay was repeated with the compounds separately to identify the individual cross reacting ligands.
Average disintegrations per minute (DPM) from the scintillation counter were plotted versus the concentration of unlabeled ligand using Origin software (OriginLab). A 4-parameter logistic function was fit to the data to obtain values describing the top and bottom plateaus, slope and mid-point. The mid-point of the curve identifies the concentration of unlabeled ligand required to inhibit 50% of the binding of [^3H]-METH. For homologous assays in which unlabeled METH competes with [^3H]-METH for binding to ch-Antibody 51, the dissociation constant (KD) is found by subtracting the concentration of [^3H]-METH from the mid-point. For non-homologous assays in which unlabeled ligands other than METH compete for binding with [^3H]-METH, the subtraction yields a KI value.
Each pool was analyzed in triplicate, twice at each concentration.
Three (3) of the pools inhibited binding of radiolabeled METH by more than 50%, therefore these individual ligands were retested at 1 μM in triplicate in 2 separate assays.

[2] = (±)-METH priming-induced reinstatement (relapse) of lever pressing; assay type: in vivo, male Long Evans rat; settings: for response rate (lever presses on reinforced lever): Day 1, 1 mg/kg ip (±)-METH prime
Method: The male Long Evans rat was chosen as the animal model for this study because it is a preferred rodent species for preclinical toxicity testing of drug self-administration paradigms. Commercially obtained test chambers equipped with two retractable levers, a white cue light positioned above each lever, a 5-w house light, and a Sonalert® tone generator (MED Associates, Inc., St. Albans, Vt.) emitting a 2900 Hz, 60 dB tone were used. Infusions were delivered in a 0.2 ml volume by a 6-s activation of infusion pumps (Model PHS-100; MED Associates, Inc., St. Albans, Vt.). Recordings of lever presses and activations of lights, pumps, and Sonalerts® were accomplished by a microcomputer, interface and associated software (MED-PC® IV, MED Associates, Inc., St. Albans, Vt.).
(±)-METH self-administration (SA) training sessions were conducted five days per week (M-F) for 2 hrs daily. At the start of (±)-METH SA sessions, the levers were extended and the house light was illuminated. […] At the start of an infusion the house light was extinguished, the Sonalert® was sounded, and the cue lights above each lever flashed at 3 Hz. The Sonalert® and cue lights remained activated during the 6 s infusion. Twenty seconds following the onset of the infusion the house light was re-illuminated, and the opportunity to self-administer (±)-METH was again made available (i.e., each (±)-METH infusion initiated a 20 s period during which lever presses were recorded but were without scheduled consequences and further infusions could not be obtained). Reinforced-lever (right-side) lever presses during the infusions as well as all non-reinforced (left-side) lever presses were recorded, but the latter were without scheduled consequences.
SA training continued until all three criteria had been met: 1) at least 12 self-administration sessions occurred; 2) at least 15 (±)-METH infusions occurred during each of the last four sessions; and, 3) at least 125 lifetime (±)-METH infusions were obtained. Subsequently, twelve 2-h daily (Mon-Sun) extinction sessions were conducted. […] Other conditions during extinction were identical to those during SA. That is, during extinction sessions, both levers were extended and the house light was activated. Before the last four extinction sessions, an injection of saline (the vehicle for (±)-METH prime) was administered ip 30 min pre-session to acclimate the rats to the injection procedure.
Reinstatement testing followed extinction training. A rat was considered eligible for subsequent reinstatement testing if during the last three extinction sessions the mean number of reinforced-lever lever presses was less than the mean number occurring during the first three extinction sessions. […] One rat in the vehicle group was inadvertently retained, even though its response mean (12.3 responses) during the last three extinction sessions exceeded its first three extinction sessions (11.6 responses). Reinstatement testing occurred across 13 daily (Mon-Sun) 2-h experimental sessions. Conditions during reinstatement testing were identical to those during extinction training with two exceptions.
The ip route of (±)-METH exposure during relapse testing was selected mainly for convenience of dosing and to avoid additional use of the catheters. […] The dose volume for each animal was based on the most recent body weight measurement.
Body weights, eating behavior, and general health observations were recorded for each animal. Analyses of an animal's lever pressing responses to vehicle and (±)-METH-induced relapse to active lever responding were used as a measure of the animal's response to an ip injection of vehicle (control) or (±)-METH (1.0 mg/kg).
Initially, the number of right-side lever presses occurring during test days between test groups was compared using a two-factor, repeated measures ANOVA (Prism 5 for Macintosh, GraphPad Software, Inc., San Diego, Calif.). […]

[3] = terminal elimination half-life in rats; assay type: in vivo; settings: unpublished finding
[4] = long-term in vivo METH binding function during continuous sc (+)-METH infusion; design: species or system Sprague-Dawley rats; settings: rats, single iv mAb dose 180 mg/kg, sc (+)-METH infusion 5.6 mg/kg/day, serum METH to day 13
Method: FIG. 1 depicts two graphs showing changes in METH in vivo binding by anti-METH monoclonal antibodies (mAbs) in the presence of a 13 day continuous METH infusion. Once METH achieved steady-state levels (pre-mAb) in each of the Sprague-Dawley rats (n=2 per group), a single dose of vehicle treatment (METH only) or of treatment with three different anti-METH mAbs were given as an iv bolus (180 mg/kg, equimolar in binding sites to the METH body burden). Serum samples were collected before the mAb treatment and at various time points after mAb treatment for determination of METH concentrations over time (A). Values represent the mean METH concentration of each group for each time point. METH AUC data is shown in (B). […]
About 16 h after pumps implantation, the rats were anesthetized with halothane. […] METH concentrations in serum samples were then determined by liquid chromatograph/mass spectrometry/mass spectrometry (LC/MS/MS) analysis by a previously reported method from our laboratory (Laurenzana E M et al. Drug Metab Dispos (1995) 23: 271-278).
The route of (+)-METH dosing was a subcutaneous (sc) infusion. […] Body weights, eating behavior, and general health observations were recorded for each animal. (+)-METH concentrations were determined by LC/MS/MS, similar to the method described by described by (Laurenzana E M et al. Drug Metab Dispos (1995) 23: 271-278). […]

[5] = individual ligands at 1 μM, triplicate in 2 assays, average

CN[C@@H](C)[C@H](O)c1ccccc1 (racemic) [(±)-Ephethine]
Percent inhibition of [3H]-METH binding [1, 5]: 26.1%

CC(N)Cc1ccc2c(c1)OCO2 (single isomer, unassigned; (+)) [(+)-MDA, (+) 3,4-methylenedioxyamphetamine]
Percent inhibition of [3H]-METH binding [1, 5]: 40.7%

CNC(C)Cc1ccc2c(c1)OCO2 (single isomer, unassigned; (-)) [(−)-MDMA]
Percent inhibition of [3H]-METH binding [1, 5]: 78.3%
Ki ([1]; inferred from more than 50% inhibition at 1 μM): < 1 µM

NCCc1ccccc1 [2-Phenylethylamine]
Percent inhibition of [3H]-METH binding [1, 5]: 20.0%

CNC[C@H](O)c1cccc(O)c1 [(−)-Phenylephrine]
Percent inhibition of [3H]-METH binding [1, 5]: 38.2%

NCCc1ccc(O)cc1 [Tyramine]
Percent inhibition of [3H]-METH binding ([1]; ligand pool, each inhibitor in pool 1 μM): 2.1%
Percent inhibition of [3H]-METH binding ([1]; ligand pool, each inhibitor in pool 10 μM): 7.5%

(+)-Norpseudoephedrine
Percent inhibition of [3H]-METH binding [1, 5]: 36.3%

(+)-Pseudoephedrine
Percent inhibition of [3H]-METH binding [1, 5]: 5.1%

B1: Antibody 51: high affinity murine anti-METH monoclonal antibody; light chain SEQ ID NO: 3, heavy chain SEQ ID NO: 4 (antibody)
heavy: EIQLQQSGPELGKPGASVKVSCRASGFSFADYYIYWVKQSHGKSLELIGYIDPFNGGDTYNQIFKGKATLTVDKSSSTAFMYLNSLTSEDSAVYYCAAFRNPSFDFWGQGTTLTVSSAKTTPPSVYPLAPGSAAQTNSMVTLGCLVKGYFPEPVTVTWNSGSLSSGVHTFPAVLQSDLYTLSSSVTVPSSTWPSETVTCNVAHPASSTKVDKKIVPRDCGCKPCICTVPEVSSVFIFPPKPKDVLTITLTPKVTCVVVDISKDDPEVQFSWFVDDVEVHTAQTQPREEQFNSTFRSVSELPIMHQDWLNGKEFKCRVNSAAFPAPIEKTISKTKGRPKAPQVYTIPPPKEQMAKDKVSLTCMITDFFPEDITVEWQWNGQPAENYKNTQPIMDTDGSYFVYSKLNVQKSNWEAGNTFTCSVLHEGLHNHHTEKSLSHSPGK
light: QIVLIQSPPIMSASPGEKVTLTCSASSSVSSRYLYWYQQKPGSSPKLWIYGTSNLASGVPARFSGSGSGTSFSLTISSMEAEDAASYFCHQWSSFPFTFGSGTKLEIKRADAAPTVSIFPPSSEQLTSGGASVVCFLNNFYPKDINVKWKIDGSERQNGVLNSWTDQDSKDSTYSMSSTLTLTKDEYERHNSYTCEATHKTSTSPIVKSFNRNEC
modifications: SYTHENSIZED
responding with subsequent treatments every three days ([2]; 30 mg/kg iv): maintained responding at levels always higher than the control
increase over control values ([2]; 30 mg/kg iv, Day 1): 143%
response rate (lever presses on reinforced lever) ([2]; 30 mg/kg iv): 70 presses
responding with subsequent treatments every three days ([2]; 56 mg/kg iv): progressively lower responses from the Day 1 level of responding
increase over control values ([2]; 56 mg/kg iv, Day 1): 182%
response rate (lever presses on reinforced lever) ([2]; 56 mg/kg iv): 91 presses
lever presses ([2]; 100 mg/kg iv, Day 1): ~50 lever presses
responding compared to vehicle ([2]; 100 mg/kg iv, Day 1): at the same level as vehicle treatment responding
apparent METH dose on ascending side of simulated dose-response curve ([2]; 100 mg/kg iv, Day 1, pharmacodynamic simulation, 50 responses): ~0.025 mg/kg/inj
responding compared to control ([2]; 100 mg/kg iv, Day 7, after third dose): significantly reduced; also recorded: near extinction
responding ([2]; 100 mg/kg iv, Day 10, administration stopped): remained blunted
responding ([2]; 100 mg/kg iv, Day 13, administration stopped): return to near control levels of responding
responding compared to control ([2]; 100 mg/kg iv, after the second administration): reduced responding below control levels
terminal elimination half-life [3]: ~140 h
long-term in vivo METH binding function [4]: showed long-term functional properties
